Laboratory results taken from patent publication US7442773B2, “Universal peptide-binding scaffolds and protein chips” (The Board of Trustees of The University of Illinois, priority 2004, dated 2008).

Biological target: biotinylated HA306-318 peptide
Format: binding, influenza virus
Details: 20 hours at 37° C., flow cytometry, estimated, read-out: apparent dissociation constant KD of the biotinylated HA306-318 peptide complex

B1: DWP-7: evolved single-chain HLA-DR1 variant (α-linker-β) from library lib-αβ, SEQ ID NOs:35 and 36 (protein)
chain: RKEEHVITQAEFYLNPDQSGEFMFDFDGDEIFHVDMAKKETVWRLEEFGRFASFEAQGALANIAVDKANLEIMTKRSNYTPITNVPPEVTVLTNSPVELREPNVLICYIDKFTPPVVNVTWLRNGKPVTTGVSETVFLPREDHLFRKFHYLPFLPSTEDVYDCRVEHWGLDEPLLKHWEFNAPSPLPETTENLGGGGSGGGRSGGGGSGDTRPRFLWQHKFECHFFNGTERVRLLERCIYNQEESVRFDSDVGEYRAVTELGRPAAEYWNSQKDLLEQRRAAADTYCRHNYGVGESFTVRRRVEPKVTVYPSKTQPLQHHNLLVCSVSGFYPGSIEVRWFRNGQEEKAGVVSTGLIQNGDWTFQTLVMLETVPRSGEVYTCQVEHPSVTSPLTVEWRARSESAQSKLESRGPFEGKPIPNPLLGLDSTRTGHHHHHH
modifications: Sequence of mutant DWP-7
- Kd: 5 µM
